These results are taken from patent US20010041790A1.

For experiment [1], the target named is murine PrPsen (mouse) (UniProt P04925). Kind of experiment: cell-based or functional assay.
Experiment [2] deals with 35S-labeled hamster PrPsen, glycophosphoinositol-negative form (35S-HaPrPsen) (Syrian golden hamster) (UniProt P04273). Kind of experiment: cell-based or functional assay.

In experiment [1], Mo3F4P109-141 (peptide) gave an IC50 of murine PrP conversion of 50 µM.
On to MoP109-141 (peptide), for which the IC50 of murine PrP conversion in experiment [1] amounted to 50 µM. The IC50 of the hamster PrP conversion reaction in experiment [2] is 70 µM.
On to hamster PrP synthetic peptide P113-141, for which, in experiment [2], the IC50 of the in vitro conversion worked out at 40 µM.
In the case of hamster PrP synthetic peptide P115-141, the IC50 of the conversion reaction in experiment [2] amounted to 40 µM.
Same read-out and setting: the figure for hamster PrP synthetic peptide P117-141 is 80 µM.
Turning to hamster PrP synthetic peptide P119-128, the IC50 of the conversion reaction in experiment [2] amounted to 550 µM.
The same measure, in the same setting: next, hamster PrP synthetic peptide P119-136: less than 100 µM.
Same read-out and setting: the figure for hamster PrP synthetic peptide P119-141 is 120 µM.
